Measurements reported in WO2018087143A2 (dated 2018).

T1: mouse PD-1 (mouse, UniProt Q02242 25-167, limits assumed)
T1 construct: also called murine PD-1
T1 sequence (looked up): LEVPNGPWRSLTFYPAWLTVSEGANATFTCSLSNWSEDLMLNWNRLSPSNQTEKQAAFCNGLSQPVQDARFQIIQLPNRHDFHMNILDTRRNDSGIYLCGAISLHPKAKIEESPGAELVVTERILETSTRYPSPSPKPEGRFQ


What was measured:
[1] = molecular target: PD-1 expressed on Jurkat cells (NFAT-luc2/PD-1 Jurkat Cells, Promega, CS187102) (UniProt Q15116 25-288, limits assumed); assay: cell-based or functional assay
PD-1 expressed on Jurkat cells (NFAT-luc2/PD-1 Jurkat Cells, Promega, CS187102), sequence (Q15116 25-288 limits assumed): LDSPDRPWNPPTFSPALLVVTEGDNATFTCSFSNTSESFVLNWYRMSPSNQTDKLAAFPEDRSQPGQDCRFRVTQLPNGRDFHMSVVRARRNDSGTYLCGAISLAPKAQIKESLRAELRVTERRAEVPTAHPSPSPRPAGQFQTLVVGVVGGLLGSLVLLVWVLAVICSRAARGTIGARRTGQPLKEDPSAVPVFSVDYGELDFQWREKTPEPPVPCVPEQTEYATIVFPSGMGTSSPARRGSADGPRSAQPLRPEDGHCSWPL

[2] = molecular target: T2, cynomolgus monkey PD-1-rCD4 (cynomolgus monkey; rat); assay: SPR (BIAcore T100), IgG2 captured on anti-human Fc, PD-1 injected, 1:1 fit
T2 sequence (P05540 207-392): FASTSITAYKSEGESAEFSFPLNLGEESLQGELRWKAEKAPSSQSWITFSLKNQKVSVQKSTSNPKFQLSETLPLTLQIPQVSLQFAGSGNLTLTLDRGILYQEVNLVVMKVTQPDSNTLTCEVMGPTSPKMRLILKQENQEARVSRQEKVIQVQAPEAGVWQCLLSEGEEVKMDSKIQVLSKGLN

[3] = molecular target: T3, human PD-1-rCD4 (human; rat, UniProt Q15116 25-170; P05540 207-392, limits assumed); assay: as above
T3 construct: Analyte in SPR
T3 sequence (Q15116 other isoform, or with tags, fused parts or gaps limits assumed): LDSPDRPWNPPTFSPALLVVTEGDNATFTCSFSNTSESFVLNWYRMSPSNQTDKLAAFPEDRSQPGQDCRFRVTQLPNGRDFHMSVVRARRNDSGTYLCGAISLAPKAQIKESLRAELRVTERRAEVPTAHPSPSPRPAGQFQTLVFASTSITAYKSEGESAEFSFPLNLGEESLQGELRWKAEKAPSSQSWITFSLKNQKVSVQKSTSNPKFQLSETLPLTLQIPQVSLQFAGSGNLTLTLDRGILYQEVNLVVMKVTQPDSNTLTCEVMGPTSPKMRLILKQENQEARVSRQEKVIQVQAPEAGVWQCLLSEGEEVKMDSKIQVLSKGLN

[4] = molecular target: T4, PD-1-Fc (UniProt Q15116 25-167, limits assumed); assay: competition ELISA: PD-1-Fc (0.8 nM) premixed with 8 nM antibody, added to captured PD-L1-rCD4 (competitor)
T4 construct: not shown: Fc part, detected with anti-human IgG Fc
T4 sequence (Q15116 25-167 limits assumed): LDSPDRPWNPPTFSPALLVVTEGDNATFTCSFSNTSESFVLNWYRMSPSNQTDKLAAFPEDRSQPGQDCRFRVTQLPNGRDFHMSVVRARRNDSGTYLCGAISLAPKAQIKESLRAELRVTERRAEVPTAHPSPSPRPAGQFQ

[5] = molecular target: T2, cynomolgus monkey PD-1-rCD4; assay: SPR, ratio of KD values, Table 2
[6] = molecular target: T4, PD-1-Fc; assay: competition ELISA: PD-1-Fc (0.8 nM) premixed with 0.5 nM antibody, added to captured PD-L1-rCD4 (competitor)
[7] = molecular target: T4, PD-1-Fc; assay: competition ELISA: PD-1-Fc (0.8 nM) premixed with 1 nM antibody, added to captured PD-L1-rCD4 (competitor)
[8] = molecular target: T1, mouse PD-1; assay: SPR (BIAcore T100), IgG2 captured on anti-human Fc, PD-1 injected, 1:1 fit
[9] = molecular target: T2, cynomolgus monkey PD-1-rCD4; assay: SPR (BIAcore T100), IgG2 captured on anti-human Fc, PD-1 injected, 1:1 fit; Table 1 prints 8.7
[10] = molecular target: T3, human PD-1-rCD4; assay: SPR (BIAcore T100), IgG2 captured on anti-human Fc, PD-1 injected, 1:1 fit; Table 1 prints 3.8

EC50, NFAT-luciferase reporter activity (PD-1/PD-L1 cell reporter assay) [1] [nM]	Kd [2] [nM]	koff [2] [s⁻¹]	kon [2] [M⁻¹ s⁻¹]	Kd [3] [nM]	koff [3] [s⁻¹]	kon [3] [M⁻¹ s⁻¹]	% inhibition of the PD-1/PD-L1 interaction [4] [%]	Fold Difference (Kd on cynomolgus PD-1 against Kd on human PD-1) [5] [fold]	% inhibition of the PD-1/PD-L1 interaction [6] [%]	% inhibition of the PD-1/PD-L1 interaction [7] [%]	Kd [8] [nM]	koff [8] [s⁻¹]	Kd [9] [nM]	Kd [10] [nM]	Binder
11.7	21	0.0115	548000	10	0.0061	606000	99	2.1	~75	~99	–	–	–	–	273_C01_A12 (antibody, human IgG2, kappa, V domains shown) VH: EVQLVQSGAEVKKPGSSVKVSCKASGYTFTSYYVHWVRQAPGQGLEWMGGIIPIFGTANYAQKFQGRVTITADESISTAYMELSSLRSEDTAVYYCARDLHGYSYGYPGYWGQGTLVTVSS VL: DIVMTQSPLSLPVTLGQPASISCRSSQSLVYSDANTYLNWFQQRPGQSPRRLIYEVSNRESGVPDRFSGSGSATDFTLKISRVEAEDVGVYYCMQGTQLPLTFGGGTKVEIKR
9.35	8.7	0.0034	387000	3.8	0.0015	392000	99	2.29	~75	~99	6400	0.00357	8.77	3.84	273_C12_C05 (original clone) (antibody, human IgG2, kappa, V domains shown) VH: EVQLVQSGAEVKKPGSSVKVSCKASGYTFTSYYVHWVRQAPGQGLEWMGGIIPIFGTANYAQKFQGRVTITADESTSTAYMELSSLRSEDTAVYYCARDLHGYSYGYPGYWGQGTLVTVSS VL: DIVMTQSPLSLPVTLGQPASISCRSSQSLVYHDGNTYLNWFQQRPGQSPRRLIYEVSNRDSGVPDRFSGSGSDTDFTLKISRVEAEDVGVYYCMQGAYRPLTFGQGTKVEIKR
–	5.22	–	–	–	–	–	–	–	–	–	–	–	–	–	Nivolumab (IgG2 format, as used in the experiments of the filing) (antibody, V domains shown) VH: QVQLVESGGGVVQPGRSLRLDCKASGITFSNSGMHWVRQAPGKGLEWVAVIWYDGSKRYYADSVKGRFTISRDNSKNTLFLQMNSLRAEDTAVYYCATNDDYWGQGTLVTVSS VL: EIVLTQSPATLSLSPGERATLSCRASQSVSSYLAWYQQKPGQAPRLLIYDASNRATGIPARFSGSGSGTDFTLTISSLEPEDFAVYYCQQSSNWPRTFGQGTKVEIKR
